# Laboratory results: patent US20110262525A1, “METHODS OF TREATMENT” (SCHERING CORPORATION, priority 2006, published 2011)
# Marks after values point to notes of the source that are not given here.
# B1: LCF/HCA: fully human anti-IGF1R antibody comprising the mature 19D12/15H12 light chain F (LCF) and mature heavy chain A (HCA) (antibody, V domains shown)
# VH: EVQLVQSGGGLVHPGGSLRLSCAASGFTFSSFAMHWVRQAPGKGLEWISVIDTRGATYYADSVKGRFTISRDNAKNSLYLQMNSLRAEDMAVYYCARLGNFYYGMDVWGQGTTVTVSS
# VL: EIVLTQVPDFQSVTPKEKVTITCRASQSIGSSLHWYQQKPDQSPKLLIKYASQSLSGVPSRFSGSGSGTDFTLTINSLEAEDAAAYYCHQSSRLPHTFGGGTKVEIKRT
# Tests used:
# [1] = system: KT-10 xenograft (Wilms); assay: PPTP in vivo xenograft KT-10; settings: KT-10 (Wilms) xenograft, 0.5 mg per mouse ip twice weekly for four weeks
# Description: (§1) The PPTP includes a molecularly characterized in vitro panel of cell lines (n=27) and in vivo panel of xenografts (n=61) representing most of the common types of childhood solid tumors and childhood ALL (acute lymphoblastic leukemia). LCF/HCA anti-IGF1R antibody was tested against the PPTP in vitro panel at concentrations ranging from 0.01 nM to 100 nM; and was tested against the PPTP in vivo panel at a dose of 0.5 mg per mouse administered twice weekly for four weeks via intraperitoneal injection. Three measures of antitumor activity were used: 1) response criteria modeled after the clinical setting; 2) treated-to-control (T/C) tumor volume at day 21; and 3) a time to event (4-fold increase in tumor volume) measure based on the median EFS of treated and control lines (intermediate activity required EFS (event-free survival) T/C>2, and high activity additionally required a net reduction in median tumor volume at the end of the experiment).
# (§2) Stage 1 testing involved testing an agent across the entire PPTP panel of childhood cancer xenograft lines at its maximum tolerated dose (MTD) or at a dose selected based on PK/PD (pharmacokinetic/pharmacodynamic) studies using adult preclinical models.
# (§3) In vivo solid tumor testing: For each xenograft line, 10 mice bearing subcutaneous (SC) tumors initiated treatment when the tumors were between 0.2-0.5 cm^3 in volume. Two perpendicular tumor diameters were measured at once weekly intervals with digital vernier calipers. Assuming tumors to be spherical, volumes were calculated from the formula (π/6)×d3, where d represented the mean diameter.
# (§4) Drug: LCF/HCA was dissolved in 20mM sodium acetate pH 5 buffer containing 150 mM sodium chloride, and administered intraperitoneally twice weekly for 4 consecutive weeks at a dose of 0.5 mg per animal. […]
# (§5) Median Group Response: Each individual mouse in each treatment group was assigned a response score (see Tables above) and a median score for the treatment group was calculated and then each treatment group was assigned an overall response according to the table below. […]
# [2] = system: Rh30R xenograft (ALV Rhabdomyosarcoma); assay: PPTP in vivo xenograft Rh30R
# Description: as §1, §2, §3
# (§6) Drug: LCF/HCA was dissolved in 20mM sodium acetate pH 5 buffer containing 150 mM sodium chloride, and administered intraperitoneally twice weekly for 4 consecutive weeks at a dose of 0.5 mg per animal. The antibody was provided to each testing site in coded vials for blinded testing according the PPTP's standard operating procedures.
# (§7) Median Group Response: Each individual mouse in each treatment group was assigned a response score (see Tables above) and a median score for the treatment group was calculated and then each treatment group was assigned an overall response according to the table below.
# (§8) Statistical Methods: Event-free survival (EFS) distributions of each treatment group were compared to the EFS distribution of the respective control group using the exact log rank test. P-values were 2-sided & were not adjusted for multiple comparisons given the exploratory nature of this study. P-values<0.05 were considered to be significant.
# [3] = system: NB-EBc1 xenograft (Neuroblastoma); assay: PPTP in vivo xenograft NB-EBc1; parameters: key to EFS activity notation (high, intermediate, indeterminate): high (!); intermediate (#); indeterminate (^)
# Description: as §1, §2, §3, §6, §7, §8
# [4] = system: squamous cell carcinoma cell line SCC 9; assay: Cell-Titer Glo proliferation assay, SCC9; type: cell-based; settings: 0.000256-100 nM antibody, 96 hours
# Description: Cell proliferation was assayed using a Cell-Titer Glo assay (Promega Corp.; Madison, Wis.). A cell-titer glo assay generates a “glow” luminescent signal in the presence of ATP from viable cells, which can be detected with a plate reader luminometer or CCD imaging device.
# In this assay, squamous cell carcinoma cells, SCC9, SCC25 and SCC15, were trypsinized, counted and resuspended at 25,000 cells/ml in 10% HI-FBS RPMI containing NEAA, L-Glu, MEM Vitamins and PS. […] (2500 cells) were added to each well BD Falcon 96 well black, clear bottom TC treated plate. Cells were allowed to attach and spread overnight at 37° C. Then, 10% RPMI medium was replaced with […] 2% RPMI, containing the LCF/HCA antibody at the appropriate concentration, the following day. The anti-IGF1R antibody concentrations used in each experiment were 100 nM, 20 nM, 5 nM, 0.8 nM, 0.16 nM, 0.032 nM, 0.0064 nM, 0.00128 nM, and 0.000256 nM. All treatments were prepared in 2% RPMI at 20× concentration and serial diluted. Every test point was prepared in triplicate on separate assay plates. As mentioned above, cell proliferation was measured using the CellTiter-Glo Luminescent Cell Viability Assay (Promega) at 96 hours post treatment. Luminescence was detected on a Wallac 420 Plate Reader with stacker.
# [5] = system: CHLA-79 xenograft (Neuroblastoma); assay: PPTP in vivo xenograft CHLA-79; parameters: key to EFS activity notation (high, intermediate, indeterminate): high (!); intermediate (#); indeterminate (^); settings: CHLA-79 (Neuroblastoma) xenograft, 0.5 mg per mouse ip twice weekly for four weeks
# Description: as §1, §2, §3, §6, §7, §8
# [6] = system: OS-1 xenograft (Osteosarcoma); assay: PPTP in vivo xenograft OS-1; parameters: key to EFS activity notation (high, intermediate, indeterminate): high (!); intermediate (#); indeterminate (^); settings: OS-1 (Osteosarcoma) xenograft, 0.5 mg per mouse ip twice weekly for four weeks
# Description: as §1, §2, §3, §4, §5
# [7] = system: GBM2 xenograft (Glioblastoma); assay: PPTP in vivo xenograft GBM2
# Description: as §1, §2, §3, §4, §5
# [8] = system: BT-44 xenograft (Ependymoma); assay: PPTP in vivo xenograft BT-44; parameters: key to EFS activity notation (high, intermediate, indeterminate): high (!); intermediate (#); indeterminate (^); settings: BT-44 (Ependymoma) xenograft, 0.5 mg per mouse ip twice weekly for four weeks
# Description: as §1, §2, §3, §6, §7, §8
# [9] = system: KT-16 xenograft (Rhabdoid); assay: PPTP in vivo xenograft KT-16; settings: KT-16 (Rhabdoid) xenograft, 0.5 mg per mouse ip twice weekly for four weeks
# Description: as §1, §2, §3, §4, §5
# [10] = system: NB-1691 xenograft (Neuroblastoma); assay: PPTP in vivo xenograft NB-1691; settings: NB-1691 (Neuroblastoma) xenograft, 0.5 mg per mouse ip twice weekly for four weeks
# Description: as §1, §2, §3, §4, §5
# [11] = 0.5 mg per mouse ip twice weekly for four weeks
# [12] = day 21, 0.5 mg per mouse ip twice weekly for four weeks
molecule,measurement,setting,value
B1,EFS T/C,[1],1.3
same,Median Final RTV,[1],>4
same,Tumor Volume T/C,[1]; day 21,0.43
same,EFS T/C,[2]; [11],1.8
same,Median Final RTV,[2]; [11],>4
same,Overall Group Response,[2]; [11],PD2 (1 < MS ≦ 3)
same,Tumor Volume T/C,[2]; [12],0.49
same,EFS T/C,[3]; [11],> 2.0
same,"EFS activity notation (high, intermediate, indeterminate)",[3]; [11],#
same,Median Final RTV,[3]; [11],1.4#
same,Overall Group Response,[3]; [11],PD2 (1 < MS ≦ 3)
same,Tumor Volume T/C,[3]; [12],0.8
same,proliferation of squamous cell carcinoma cell line,[4],inhibited
same,EFS T/C,[5],2.1
same,"EFS activity notation (high, intermediate, indeterminate)",[5],#
same,Median Final RTV,[5],3.9#
same,Overall Group Response,[5],PD2 (1 < MS ≦ 3)
same,Tumor Volume T/C,[5]; day 21,0.69
same,EFS T/C,[6],> 1.3
same,"EFS activity notation (high, intermediate, indeterminate)",[6],^
same,Tumor Volume T/C,[6]; day 21,0.16
same,EFS T/C,[7]; [11],1.4
same,Median Final RTV,[7]; [11],>4
same,Tumor Volume T/C,[7]; [12],0.73
same,EFS T/C,[8],2.6
same,"EFS activity notation (high, intermediate, indeterminate)",[8],#
same,Median Final RTV,[8],>4#
same,Overall Group Response,[8],PD2 (1 < MS ≦ 3)
same,Tumor Volume T/C,[8]; day 21,0.66
same,EFS T/C,[9],1.2
same,Median Final RTV,[9],>4
same,Tumor Volume T/C,[9]; day 21,0.5
same,EFS T/C,[10],0.9
same,Median Final RTV,[10],>4
same,Tumor Volume T/C,[10]; day 21,1.34
